Holding throughout (type): binding
Assay [1] has as its target T1, Spacer (residues 587–674) of UHRF1 (Homo sapiens, UniProt Q96T88).
T1 construct: Spacer (residues 587–674); GST (N, cleaved yes); made in house; host or cells: E. coli BL21 (DE3)
T1 sequence (Q96T88 587-674): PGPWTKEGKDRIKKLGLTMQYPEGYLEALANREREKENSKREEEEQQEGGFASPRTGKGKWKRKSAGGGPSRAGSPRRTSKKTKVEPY
Description: ITC, interaction of UHRF1 domains with the Spacer. On the procedure: (§1) For competition ITC experiments: the indicated proteins were pre-incubated with competitive peptide, protein or hm-DNA (at 1:2 molar ratio if not specified) for 10 min followed by ITC measurements as described above. Proteins, DNA and peptides were prepared within ITC buffer containing 10 mM HEPES, pH 8.0, 100 mM NaCl. The data were fitted by software Origin 7.0. All ITC results were summarized in Supplementary Table 2 and raw data were shown in Supplementary Fig. 9.
In general terms: Isothermal titration calorimetry measures the heat released or taken up as one component is titrated into another.

The test system of another assay is H3K9me3 peptide (1–17). Nature of the assay: ITC, H3K9me3 peptide (1-17) titrated into UHRF1 proteins. On the procedure: as §1
Assay [2] addresses T2, TTD (residues 134–285) of UHRF1 (Homo sapiens, UniProt Q96T88).
T2 construct: TTD (residues 134–285); GST (N, cleaved yes); made in house; host or cells: E. coli BL21 (DE3)
T2 sequence (Q96T88 134-285): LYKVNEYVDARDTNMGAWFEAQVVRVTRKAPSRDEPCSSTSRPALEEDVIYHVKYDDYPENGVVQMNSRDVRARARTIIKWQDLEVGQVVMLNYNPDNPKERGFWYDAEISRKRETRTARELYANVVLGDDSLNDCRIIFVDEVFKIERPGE
Nature of the assay: ITC, TTD titrated into Spacer variants and other UHRF1 fragments. Particulars: TTD in syringe. On the procedure:
as §1

A further assay deals with hm-DNA (12 bp). Nature of the assay: ITC, hm-DNA titrated into UHRF1 domains. The settings on record: 18 °C, 12-bp hm-DNA in syringe, named protein in cell, 10 mM HEPES pH 8.0, 100 mM NaCl. As to the method:
as §1

For another assay, the target named is FAM-12bp-HM-DNA. Nature of the assay: Fluorescence polarization, 12-bp FAM-hm-DNA. Particulars: FP, 25 °C, 20 min; 20 mM HEPES pH 7.5, 175 mM NaCl, 8% glycerol, 1 mM DTT; triplicate; Fig. 5b and Supplementary Table 4. On the procedure:
A 6-carboxy-fluorescein (FAM)-labelled primer, 5′-CCATGCGCTGAC-3′, was annealed to a primer 5′-GTCAGXGCATGG-3′ (X=5-methyldeoxycytosine). The hemi-methylated double-strand DNA was used in both electrophoretic mobility-shift assay and FP assays. […] The samples were subjected to a 10% polyacrylamide gel electrophoresis and run in 0.5 × Tris-borate-EDTA buffer at 100 V for 1 h at 4 °C. The results were visualized on Tanon-5200 Chemiluminescent Imaging System (Tanon Science & Technology Co., Ltd).
FP measurements were performed at 25 °C on Synergy 4 Microplate Reader (BioTek). The 16-bp and 20-bp FAM-labelled hm-DNA (lower strand: 5′-GTGTCAGXGCATGGCC-3′ and 5′-CCGTGTCAGXGCATGGCCAT-3′, respectively. X=5-methyldeoxycytosine) were used in the FP experiment to test the effect of DNA length on the protein/DNA interaction. All experiments were performed in triplicate. The curves were fitted by GraphPad Prism 5. For salt concentration-dependent FP experiments, the reaction buffer contains 50 mM or 150 mM NaCl, respectively.

Setting [3] is: ITC, 18 °C, named protein 0.05 mM in cell, H3K9me3 (1-17) 0.5 mM in syringe, 10 mM HEPES pH 8.0, 100 mM NaCl, read-out: KD.

Experimental findings from publication PMC4822050, “Hemi-methylated DNA opens a closed conformation of UHRF1 to facilitate its histone recognition” (Nature Communications, 2016) are described below.

Broadly, the Kd is the equilibrium constant for the complex coming apart.

Read-outs that look alike come from different tables or passages of the source.

B1: TTD–PHD: human UHRF1 residues 134–366 (protein)
chain: LYKVNEYVDARDTNMGAWFEAQVVRVTRKAPSRDEPCSSTSRPALEEDVIYHVKYDDYPENGVVQMNSRDVRARARTIIKWQDLEVGQVVMLNYNPDNPKERGFWYDAEISRKRETRTARELYANVVLGDDSLNDCRIIFVDEVFKIERPGEGSPMVDNPMRRKSGPSCKHCKDDVNRLCRVCACHLCGGRQDPDKQLMCDECDMAFHIYCLDPPLSSVPSEDEWYCPECRND
modifications: left off: GST, end not stated, cleaved
In the case of B1, the N in assay [1] (ITC stoichiometry, Spacer in syringe) is listed as 0.887±0.0379. This molecule also gave a Kd in assay [1] (ITC, 18 °C, Spacer in syringe, named protein in cell, 10 mM HEPES pH 8.0, 100 mM NaCl) of 10.7 µM. For the same molecule, in assay [1] (ITC, Spacer in syringe), the ΔH was -6561 ± 411.6 cal/mol and the ΔS is listed as 0.285 cal/mol/deg. Further, the “interaction between the Spacer and the named protein in the presence of H3K9me3” value in assay [1] (ITC, molar ratio of TTD-PHD or TTD: H3K9me3=1:2) is reported as “No detectable interaction”. The “fold higher binding affinity to H3K9me3 peptide than full-length UHRF1” value with H3K9me3 peptide (1–17) (ITC KD ratio) is reported as around 31 fold. For the same molecule, the Kd at H3K9me3 peptide (1–17) (setting [3]) was found to be 150 nM.

B2: UHRF1D334A: UHRF1 mutant D334A, which abolishes H3R2-binding affinity of the PHD (protein)
chain: MWIQVRTMDGRQTHTVDSLSRLTKVEELRRKIQELFHVEPGLQRLFYRGKQMEDGHTLFDYEVRLNDTIQLLVRQSLVLPHSTKERDSELSDTDSGCCLGQSESDKSSTHGEAAAETDSRPADEDMWDETELGLYKVNEYVDARDTNMGAWFEAQVVRVTRKAPSRDEPCSSTSRPALEEDVIYHVKYDDYPENGVVQMNSRDVRARARTIIKWQDLEVGQVVMLNYNPDNPKERGFWYDAEISRKRETRTARELYANVVLGDDSLNDCRIIFVDEVFKIERPGEGSPMVDNPMRRKSGPSCKHCKDDVNRLCRVCACHLCGGRQDPDKQLMCAECDMAFHIYCLDPPLSSVPSEDEWYCPECRNDASEVVLAGERLRESKKKAKMASATSSSQRDWGKGMACVGRTKECTIVPSNHYGPIPGIPVGTMWRFRVQVSESGVHRPHVAGIHGRSNDGAYSLVLAGGYEDDVDHGNFFTYTGSGGRDLSGNKRTAEQSCDQKLTNTNRALALNCFAPINDQEGAEAKDWRSGKPVRVVRNVKGGKNSKYAPAEGNRYDGIYKVVKYWPEKGKSGFLVWRYLLRRDDDEPGPWTKEGKDRIKKLGLTMQYPEGYLEALANREREKENSKREEEEQQEGGFASPRTGKGKWKRKSAGGGPSRAGSPRRTSKKTKVEPYSLTAQQSSLIREDKSNAKLWNEVLASLKDRPASGSPFQLFLSKVEETFQCICCQELVFRPITTVCQHNVCKDCLDRSFRAQVFSCPACRYDLGRSYAMQVNQPLQTVLNQLFPGYGNGR
modifications: left off: GST, end not stated, cleaved
Consider B2, for which the KD result on H3K9me3 peptide (1–17) (ITC, 18 °C, named protein 0.05 mM in cell, H3K9me3 (1-17) 0.5 mM in syringe, 10 mM HEPES pH 8.0, 100 mM NaCl) is “undetectable”.

B3: R295D/R296D mutant of full-length UHRF1: full-length UHRF1 with Linker mutation R295D/R296D (protein)
chain: MWIQVRTMDGRQTHTVDSLSRLTKVEELRRKIQELFHVEPGLQRLFYRGKQMEDGHTLFDYEVRLNDTIQLLVRQSLVLPHSTKERDSELSDTDSGCCLGQSESDKSSTHGEAAAETDSRPADEDMWDETELGLYKVNEYVDARDTNMGAWFEAQVVRVTRKAPSRDEPCSSTSRPALEEDVIYHVKYDDYPENGVVQMNSRDVRARARTIIKWQDLEVGQVVMLNYNPDNPKERGFWYDAEISRKRETRTARELYANVVLGDDSLNDCRIIFVDEVFKIERPGEGSPMVDNPMDDKSGPSCKHCKDDVNRLCRVCACHLCGGRQDPDKQLMCDECDMAFHIYCLDPPLSSVPSEDEWYCPECRNDASEVVLAGERLRESKKKAKMASATSSSQRDWGKGMACVGRTKECTIVPSNHYGPIPGIPVGTMWRFRVQVSESGVHRPHVAGIHGRSNDGAYSLVLAGGYEDDVDHGNFFTYTGSGGRDLSGNKRTAEQSCDQKLTNTNRALALNCFAPINDQEGAEAKDWRSGKPVRVVRNVKGGKNSKYAPAEGNRYDGIYKVVKYWPEKGKSGFLVWRYLLRRDDDEPGPWTKEGKDRIKKLGLTMQYPEGYLEALANREREKENSKREEEEQQEGGFASPRTGKGKWKRKSAGGGPSRAGSPRRTSKKTKVEPYSLTAQQSSLIREDKSNAKLWNEVLASLKDRPASGSPFQLFLSKVEETFQCICCQELVFRPITTVCQHNVCKDCLDRSFRAQVFSCPACRYDLGRSYAMQVNQPLQTVLNQLFPGYGNGR
modifications: left off: GST, end not stated, cleaved
As for B3, in the assay with H3K9me3 peptide (1–17) (ITC, Supplementary Fig. 4g), the “fold lower binding affinity to H3K9me3 than wild type UHRF1” value is reported as “eight”.

B4: Spacer: C-terminal spacer region of human UHRF1 (residues 587–674) (protein)
chain: PGPWTKEGKDRIKKLGLTMQYPEGYLEALANREREKENSKREEEEQQEGGFASPRTGKGKWKRKSAGGGPSRAGSPRRTSKKTKVEPY
modifications: left off: GST, end not stated, cleaved
Molecule B4 gave a N in assay [2] (ITC stoichiometry) of 0.95±0.00786. Further, in assay [2] (ITC), the ΔH is -1.13 E4±116.7 cal/mol and the ΔS is given as -12.3 cal/mol/deg. The KD result on hm-DNA (12 bp) was “no interaction”. The Kd at H3K9me3 peptide (1–17) (competition ITC, molar ratio TTD–PHD/Spacer=1:2, read-out: KD of H3K9me3 for TTD–PHD in the presence of the Spacer) stood at 1630 ± 80 nM.

B5: UHRF1D334A&∆627-674: UHRF1 with mutation D334A and deletion of residues 627–674 (protein)
chain: MWIQVRTMDGRQTHTVDSLSRLTKVEELRRKIQELFHVEPGLQRLFYRGKQMEDGHTLFDYEVRLNDTIQLLVRQSLVLPHSTKERDSELSDTDSGCCLGQSESDKSSTHGEAAAETDSRPADEDMWDETELGLYKVNEYVDARDTNMGAWFEAQVVRVTRKAPSRDEPCSSTSRPALEEDVIYHVKYDDYPENGVVQMNSRDVRARARTIIKWQDLEVGQVVMLNYNPDNPKERGFWYDAEISRKRETRTARELYANVVLGDDSLNDCRIIFVDEVFKIERPGEGSPMVDNPMRRKSGPSCKHCKDDVNRLCRVCACHLCGGRQDPDKQLMCAECDMAFHIYCLDPPLSSVPSEDEWYCPECRNDASEVVLAGERLRESKKKAKMASATSSSQRDWGKGMACVGRTKECTIVPSNHYGPIPGIPVGTMWRFRVQVSESGVHRPHVAGIHGRSNDGAYSLVLAGGYEDDVDHGNFFTYTGSGGRDLSGNKRTAEQSCDQKLTNTNRALALNCFAPINDQEGAEAKDWRSGKPVRVVRNVKGGKNSKYAPAEGNRYDGIYKVVKYWPEKGKSGFLVWRYLLRRDDDEPGPWTKEGKDRIKKLGLTMQYPEGYLEALANREREKENSKSLTAQQSSLIREDKSNAKLWNEVLASLKDRPASGSPFQLFLSKVEETFQCICCQELVFRPITTVCQHNVCKDCLDRSFRAQVFSCPACRYDLGRSYAMQVNQPLQTVLNQLFPGYGNGR
modifications: left off: GST, end not stated, cleaved
B5: the Kd at H3K9me3 peptide (1–17) (setting [3]) stood at 8690 nM.

B6: SRA-Spacer-661: UHRF1 residues 414–661 (protein, UniProt Q96T88 414-661, looked up, fragment)
chain: PSNHYGPIPGIPVGTMWRFRVQVSESGVHRPHVAGIHGRSNDGAYSLVLAGGYEDDVDHGNFFTYTGSGGRDLSGNKRTAEQSCDQKLTNTNRALALNCFAPINDQEGAEAKDWRSGKPVRVVRNVKGGKNSKYAPAEGNRYDGIYKVVKYWPEKGKSGFLVWRYLLRRDDDEPGPWTKEGKDRIKKLGLTMQYPEGYLEALANREREKENSKREEEEQQEGGFASPRTGKGKWKRKSAGGGPSRAGS
As to B6, the Kd at FAM-12bp-HM-DNA is 380 ± 60 nM.
